Assay results from patent publication US20170119790A1, “Agents, Uses and Methods” (CYTOGUIDE A/S, priority 2009, published 2017).

Assays:
[1] = system: LPS mediated TNFα stimulation; assay: Rat in vivo LPS model; design: species or system Lewis rats; details: i.v., challenged with LPS, FIG. 41
[2] = system: LPS mediated TNFα stimulation of rat macrophages / spleen cells; assay: Rat in vitro LPS model; type: cell-based; details: FIG. 41
Experimental: Rat or mouse peritoneal or spleen cell suspensions were prepared from female Lewis rats (Harlan) or BalB/cA mice (Taconic). Human mononuclear cells were isolated from buffycoats (Skejby University Hospital) as described above. The purified cells were suspended in RPMI medium supplemented with 10% FCS and 2 mM L-glutamine and cultured (2×10^5 per well) overnight in 96-well flat bottomed plates (125 μl per well) at 37° C. and 5% CO2. Glucocorticoid conjugates (Example 8), free glucocorticoids or PBS were serial diluted in supplemented RPMI medium and added (100 μl) to the overnight cell cultures at final concentrations ranging from 1-10^−7 μg glucocorticoid/ml. After incubation for a specific time ranging from 30 min-24 hours, 150 μl supernatant was carefully aspirated and 150 μl supplemented RPMI medium added to the wells before further incubation overnight. Each incubation condition was tested in duplicates or triplicates. After 16-20 hours, the cells were challenged with lipopolysaccharide (LPS) (250 ng/ml) for 4 hours before supernatant was aspirated from each well and frozen at -20° C.

[3] = molecular target: T1, CD163 transfected Flp-In CHO cells (Homo sapiens, UniProt Q86VB7); assay: Cellular binding and uptake (endocytosis) of 125I-labeled anti-CD163; type: cell-based
T1 construct: Stably transfected Chinese hamster ovary (CHO) cells expressing the full-length human CD163; expressed in transfected cells
Experimental: Monocytes were isolated from PBMC by negative selection using magnetic beads from Dynal (Dynabeads® MyPure™ Monocyte Kit 2; Invitrogen A/S, Taastrup, Denmark) according to instructions provided by the manufacturer. Monocyte preparations were more than 95% (CD14^+) pure determined by flow cytometry. The isolated cells were washed twice with phosphate-buffered saline. Monocyte-derived macrophages (MDMs) were prepared by cell culture of monocytes (approximately 1×10^7 cells) for 4 days in 5% CO2 and 37° C. in RPMI 1640 media (RPMI 1640+25 mM HEPES+I-glutamine) (Invitrogen Corporation, Carlsbad, Calif., USA) with 20% FCS containing 100 ng/ml of M-CSF. MDMs were then detached from the flask by incubation with cell dissociation buffer (Invitrogen A/S, Taastrup, Denmark) for 30 minutes at 4 °C, then flushed, and scraped. The cells were then cultured for 24 hours in RPMI 1640 media (RPMI 1640+25 mM HEPES+I-glutamine) (Invitrogen Corporation, Carlsbad, Calif., USA) supplemented with 20% FCS containing 100 ng/ml of M-CSF at 37° C. in 95% air and 5% CO2 in Lab-Tek™ Chamber Slides (Thermo Fisher Scientific, Roskilde, Denmark). 200 nM dexamethasone (Merck KGaA, Darmstadt, Germany) was added during culture to increase CD163 expression. Stably transfected Chinese hamster ovary (CHO) cells expressing the full-length human CD163, as described above, were cultured in serum-free CHO medium (HyQ-CCM, HyClone, Logan, Utah) containing 300 μg/ml Hygromycin B, as previously described (2).
Endocytosis of ^125I-labeled anti-CD163 was investigated in CD163 transfected Flp-In Chinese hamster ovary (CHO) cells and mock-transfected Flp-In as described (Madsen, M., Moller, H. J., Nielsen, M. J., Jacobsen, C., Graversen, J. H., van den Berg, T. and Moestrup, S. K. (2004) Molecular characterization of the haptoglobin.hemoglobin receptor CD163. Ligand binding properties of the scavenger receptor cysteine-rich domain region. J. Biol. Chem., 279, 51561-51567.)

CD163 [4] = molecular target: T2, CD163 (Homo sapiens, UniProt Q86VB7); assay: Competition of binding to Mac2-158 epitope (SPR on Mac2-158 saturated CD163 chip); details: 2 mM free calcium buffer, mAb 5 μg/ml
Experimental: To evaluate if there is competition in the binding of a range of mAbs to CD163 we first saturated the CD163-chip with Mac2-158 by injecting 50 μL of 50 μg/ml Mac2-158 and subsequently injecting relevant mAbs in 5 μg/ml. The binding buffer was CaHBS 10 mM Hepes, 150 mM NaCl, 3.0 mM CaCl2, 1.0 mM EGTA, and 0.005% Tween 20, pH 7.4.

[5] = molecular target: T3, CHO cells expressing CD163 (Homo sapiens, UniProt Q86VB7); assay: CD163 antibody binding and uptake in CHO cells expressing CD163 (confocal microscopy); type: cell-based; details: 0 or 30 minutes, FIG. 7
T3 construct: Stably transfected Chinese hamster ovary (CHO) cells expressing the full-length human CD163; expressed in transfected cells
Experimental: Monocytes were isolated from PBMC by negative selection using magnetic beads from Dynal (Dynabeads® MyPure™ Monocyte Kit 2; Invitrogen A/S, Taastrup, Denmark) according to instructions provided by the manufacturer. Monocyte preparations were more than 95% (CD14^+) pure determined by flow cytometry. The isolated cells were washed twice with phosphate-buffered saline. Monocyte-derived macrophages (MDMs) were prepared by cell culture of monocytes (approximately 1×10^7 cells) for 4 days in 5% CO2 and 37° C. in RPMI 1640 media (RPMI 1640+25 mM HEPES+I-glutamine) (Invitrogen Corporation, Carlsbad, Calif., USA) with 20% FCS containing 100 ng/ml of M-CSF. MDMs were then detached from the flask by incubation with cell dissociation buffer (Invitrogen A/S, Taastrup, Denmark) for 30 minutes at 4 °C, then flushed, and scraped. […]
MDMs or CHO cells were washed with 4° C. cold D-PBS, pH 7.4, containing 1% BSA in Lab-Tek™ Chamber Slides (Thermo Fisher Scientific, Roskilde, Denmark). […] Fluorescence was visualized using a Zeiss Axiovert 200M microscope (Carl Zeiss GmbH, Jena, Germany) with an ×100 oil-immersion objective. […] Alternatively, immunostained cells were analyzed by confocal immunofluorescence microscopy using a Zeiss LSM-510 confocal microscope (Carl Zeiss GmbH, Jena, Germany). […]

CD163 [6] = molecular target: T2, CD163; assay: Surface plasmon resonance (Biacore) analysis of mAb binding to immobilized CD163; details: in both 2 mM free Ca2+ and 10 mM EDTA
Experimental: (§1) SPR analysis of the binding of mAbs to CD163 was carried out on a Biacore 2000 instrument (Biacore, Uppsala, Sweden). The Biacore sensor chips (type CM5) were activated with a 1:1 mixture of 0.2 M N-ethyl-N′-(3-dimethylaminopropyl) carbodiimide and 0.05 M N-hydroxysuccimide in water. Purified recombinant CD163 were immobilized in 10 mM sodium acetate, pH 4.0, and the remaining binding sites were blocked with 1 M ethanolamine, pH 8.5. The SPR signal generated from immobilized recombinant CD163 proteins corresponded to 40-70 fmol of protein/mm^2. Sensorgrams were generated using mAb concentrations ranging from 5-100 nM. The flow cells were regenerated with 1.6 M glycine-HCl, pH 3. The running buffer used for the experiment was either CaHBS 10 mM Hepes, 150 mM NaCl, 3.0 mM CaCl2, 1.0 mM EGTA, and 0.005% Tween 20, […], and 0.005% Tween 20, pH 7.4, mAb samples were dissolved in the same buffer as the running buffer used. All binding data were analyzed using the Biamolecular Interaction Analysis evaluation program version 3.1.
as §1, with “7.4, KN2/NRY and Mac-158” for “7.4, mAb”, “buffer used at a concentration of 5 μg/ml.” for “buffer used.”

CD163 [7] = molecular target: T2, CD163; assay: scFv ELISA; type: binding; details: for ELISA signal: PBS, read at 450 nm
Experimental: A nunc Maxisorp ELISA plate (NUNC, Roskilde, Denmark) was coated with 50 μl/well of 2 μg/ml of CD163 (purified as described in (2)) over night at 4° C. The coated plate was washed 3 times in PBS and blocked for 1 hour with 3% BSA in PBS. Fractions from scFv purification were tested by adding 100 μl/well of a 1:10 dilution of each sample in 1% BSA, PBS. The refolded protein sample was added directly to the wells (100 μl/well) and two-fold dilution series was made with dilution in 1% BSA in PBS. After 1 hour incubation at 4° C. the plate was washed 3 times in PBS again. Secondary detection was made with a 1 hour incubation of a HRP conjugated anti-His antibody (Sigma-Aldrich, Brøndby, Denmark) (1:4000 diluted in 1% BSA, PBS). After washing 3 times in PBS the ELISA was developed with […] TMB substrate (Invitrogen, Taastrup, Denmark). The reaction was stopped with 40 μl/well of 1 M H2SO4 and the plate was read in an ELISA reader at 450 nm.

T2 sequence (Q86VB7 42-1156): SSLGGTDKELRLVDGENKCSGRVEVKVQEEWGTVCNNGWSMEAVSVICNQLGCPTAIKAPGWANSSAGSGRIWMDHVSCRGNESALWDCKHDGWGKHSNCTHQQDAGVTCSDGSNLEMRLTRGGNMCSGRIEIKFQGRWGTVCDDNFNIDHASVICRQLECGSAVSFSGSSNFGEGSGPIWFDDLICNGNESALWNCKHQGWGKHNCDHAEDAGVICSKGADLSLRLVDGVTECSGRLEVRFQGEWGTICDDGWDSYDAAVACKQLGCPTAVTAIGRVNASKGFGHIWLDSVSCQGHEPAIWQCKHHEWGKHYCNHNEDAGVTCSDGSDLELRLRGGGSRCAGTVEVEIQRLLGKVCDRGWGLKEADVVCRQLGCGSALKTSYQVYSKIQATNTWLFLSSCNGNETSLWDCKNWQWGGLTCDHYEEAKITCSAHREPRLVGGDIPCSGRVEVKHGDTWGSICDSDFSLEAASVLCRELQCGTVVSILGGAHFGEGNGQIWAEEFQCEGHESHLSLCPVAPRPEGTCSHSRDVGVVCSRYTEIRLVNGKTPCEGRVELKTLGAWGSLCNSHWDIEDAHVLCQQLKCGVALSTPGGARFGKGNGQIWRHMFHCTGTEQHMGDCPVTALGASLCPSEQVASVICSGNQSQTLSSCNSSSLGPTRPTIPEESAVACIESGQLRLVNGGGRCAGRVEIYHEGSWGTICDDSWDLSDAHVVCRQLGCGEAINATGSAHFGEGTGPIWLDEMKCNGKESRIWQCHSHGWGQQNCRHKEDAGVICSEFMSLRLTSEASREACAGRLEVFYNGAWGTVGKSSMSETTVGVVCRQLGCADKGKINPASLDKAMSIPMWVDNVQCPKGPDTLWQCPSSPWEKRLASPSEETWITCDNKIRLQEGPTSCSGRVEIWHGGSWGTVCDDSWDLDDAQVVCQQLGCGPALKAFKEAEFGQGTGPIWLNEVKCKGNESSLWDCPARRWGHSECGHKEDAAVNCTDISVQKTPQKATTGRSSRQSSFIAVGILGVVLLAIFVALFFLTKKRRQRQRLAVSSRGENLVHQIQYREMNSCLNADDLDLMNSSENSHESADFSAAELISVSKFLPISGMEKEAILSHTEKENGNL
T1 sequence (Q86VB7 42-1156): as above
T3 sequence (Q86VB7 42-1156): as above

C[C@]12C=CC(=O)C=C1CC[C@@H]1[C@@H]2[C@@H](O)C[C@@]2(C)[C@H]1CC[C@]2(O)C(=O)CO [prednisolone]
TNFα level lower compared to vehicle [1]: 5 times

CC1(C)O[C@@H]2C[C@H]3[C@@H]4C[C@H](F)C5=CC(=O)C=C[C@]5(C)[C@@]4(F)[C@@H](O)C[C@]3(C)[C@]2(C(=O)CO)O1 [fluocinolone-acetoniode, Fluocinolone acetonide]
suppressive in vitro effect compared to prednisolone [2]: significantly higher
TNFα level lower compared to vehicle [1]: 5 times

B1: Mac2-48: anti-human CD163 murine mAb, IQ Products; VH SEQ ID NO: 3, VL SEQ ID NO: 4 (antibody, V domains shown)
VH: DVQLQESGPGLVKPSQSLSLTCTVTGYSITSDYAWNWIRQFPGNKLEWMGFISYSGITSYNPSLKSRISITRDTSKNQFFLQLNSVTTEDSATYYCVSGTYYFDYWGQGTTLTVSS
VL: SIVMTQTPKFLLVSAGDRVTITCKASQSVSHDVSWFQQKPGQSPKLLIYYTSNRYTGVPDRFTGSGYGTDFTFTISTVQAEDLAIYFCQQDYSSPRTFGGGTKLEIKRA
modifications: Mac2-48 VH; Mac2-48 VL
time course of cell-associated radioactivity (bound or internalized) ([3]; 125I-labelled mAb, increasing time points): did not reach a plateau
cellular uptake and binding to CD163-expressing cells ([3]; compared with the other tested antibodies, FIG. 5): considerably higher
binding to CD163-Fc saturated with Mac2-158 (CD163 [4]): not able to bind
binding and uptake [5]: best binding and uptake
affinities for CD163 (CD163 [6]): nanomolar or sub-nanomolar range

B2: refolded scFv: scFv (VH-15 residue linker-VL), SEQ ID NO: 56, expressed in E. coli and refolded (protein)
scFv: MDQVQLQESGPGLVKPSETLSLTCTVSGYSITSDYAWNWIRQFPGNKLEWMGYITYSGSTYYNPSLKSRVTISVDTSKNQFSLKLSSVTAADTATYYCVSGTYYFDYWGQGTTLTVSSGGGGSGGGGSGGGGSDIVMTQSPSSLSASVGDRVTITCRASQSVSSDVAWFQQKPGKSPKPLIYYASNRYSGVPSRFSGSGSGTDFTLTISSLQAEDFAVYFCGQDYTSPRTFGGGTKLEIKREQKLISEEDL
modifications: scFv sequence
dilution down to which binding signals to CD163 were detected (CD163 [7]; 2 fold dilution series): 128 fold
ELISA signal (CD163 [7]; 64 fold dilution in 1% BSA): 0.29
ELISA signal (CD163 [7]; 128 fold dilution in 1% BSA): 0.15
